Tested on: Escherichia coli TOP10
Assay: shrunken log2 fold change of peptide-encoding DNA abundance (4.5 h post-induction vs induction); higher = less antimicrobial activity (less host growth inhibition)
Conditions: time post-induction: 4.5 h; library: site-saturation at positions 5, 18, 19, 20
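Note: peptides expressed intracellularly from a pBAD plasmid library in pooled LB shake-flask culture, induced with 0.3% L-arabinose, DNA abundance read by NGS, three biological replicates, DESeq2 with apeglm shrinkage.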

Row | Sequence | shrunken log2 fold change
1 | RRIRQRPPRLPRPRPRPWLCPRP | -0.0571
2 | RRIRERPPRLPRPRPRPERKPRP | 0.0538
3 | RRIRFRPPRLPRPRPRPTQSPRP | 0.691
4 | RRIRQRPPRLPRPRPRPCKQPRP | 0.0108
5 | RRIRIRPPRLPRPRPRPCTDPRP | -0.143
6 | RRIRERPPRLPRPRPRPDVDPRP | 0.0225
7 | RRIRMRPPRLPRPRPRPLVCPRP | 0.368
8 | RRIRKRPPRLPRPRPRPDKHPRP | 0.0337
9 | RRIRIRPPRLPRPRPRPRTYPRP | -0.726
10 | RRIRVRPPRLPRPRPRPWHFPRP | -0.0232
11 | RRIRRRPPRLPRPRPRPCTGPRP | 0.0659
12 | RRIRNRPPRLPRPRPRPTQMPRP | 0.0452
13 | RRIRLRPPRLPRPRPRPRFAPRP | 0.374
14 | RRIRRRPPRLPRPRPRPRQQPRP | -0.0361
15 | RRIRYRPPRLPRPRPRPYKMPRP | -0.277
16 | RRIRNRPPRLPRPRPRPVRIPRP | 0.0513
17 | RRIRQRPPRLPRPRPRPNKMPRP | -0.0321
